Data on two proteins can be found in article PMC11512059 (Nature Communications, 2024).

The data set concerns the molecule itself. The data set is described as follows: cryo-EM structure.

B1: human connexin 36 gap junction channel, wild type, in lipid nanodiscs containing brain lipids (Cx36_(Nano-BL)-WT) (natural protein, UniProt Q9UKL4 1-321, looked up)
chain: MGEWTILERLLEAAVQQHSTMIGRILLTVVVIFRILIVAIVGETVYDDEQTMFVCNTLQPGCNQACYDRAFPISHIRYWVFQIIMVCTPSLCFITYSVHQSAKQRERRYSTVFLALDRDPPESIGGPGGTGGGGSGGGKREDKKLQNAIVNGVLQNTENTSKETEPDCLEVKELTPHPSGLRTASKSKLRRQEGISRFYIIQVVFRNALEIGFLVGQYFLYGFSVPGLYECNRYPCIKEVECYVSRPTEKTVFLVFMFAVSGICVVLNLAELNHLGWRKIKLAVRGAQAKRKSIYEIRNKDLPRVSVPNFGRTQSSDSAYV
As for B1, the binding result was “binds”.

B2: human connexin 36 Ala14 deletion variant gap junction channel in lipid nanodiscs containing brain lipids (Cx36_(Nano-BL)-∆A14) (natural protein, UniProt Q9UKL4 1-321, looked up)
chain: MGEWTILERLLEAVQQHSTMIGRILLTVVVIFRILIVAIVGETVYDDEQTMFVCNTLQPGCNQACYDRAFPISHIRYWVFQIIMVCTPSLCFITYSVHQSAKQRERRYSTVFLALDRDPPESIGGPGGTGGGGSGGGKREDKKLQNAIVNGVLQNTENTSKETEPDCLEVKELTPHPSGLRTASKSKLRRQEGISRFYIIQVVFRNALEIGFLVGQYFLYGFSVPGLYECNRYPCIKEVECYVSRPTEKTVFLVFMFAVSGICVVLNLAELNHLGWRKIKLAVRGAQAKRKSIYEIRNKDLPRVSVPNFGRTQSSDSAYV
As for B2, the binding result was “binds”.
